{"source": "the PETadex activity labels (doi:10.1128/spectrum.00976-21)", "proteins": {"B1": {"name": "unnamed (protein)", "chain": "MVRVFGLTLLALLVPALAAPVPEDLEARQSGCADVMVVYARGTDQDSPIGDPASVGVLFRDNIKSLLGSRTFSFQGVNYAANVIGFLQGGDPAGSRQMTTDLTNVANSCPNAKIVSAGYSQGGQLVHNSAAQLTAAVRNRINAVVIFGDPKSDQAVTGIPSSNVKIICHDGDNICEGGFIVTSQHTNYQQDAPAAAQFVLSKV"}}, "key": {"pNP-C2": {"substrate": "pNP-C2", "test": "Proxy for plastic degradation [Specific activity]"}, "PET; PCL": {"substrate": "PET; PCL", "test": "Proxy for plastic degradation [Titratable acid release]", "conditions": "pH 7.5; 14 h"}}, "data": [{"protein": "B1", "values": [{"measurement": "Proxy for plastic degradation", "setting": "pNP-C2; pH 2", "result": 0, "unit": "U/mg"}, {"measurement": "Proxy for plastic degradation", "setting": "pNP-C2; pH 3", "result": 0, "unit": "U/mg"}, {"measurement": "Proxy for plastic degradation", "setting": "pNP-C2; pH 4", "result": 0, "unit": "U/mg"}, {"measurement": "Proxy for plastic degradation", "setting": "pNP-C2; pH 5", "result": 14500, "unit": "U/mg"}, {"measurement": "Proxy for plastic degradation", "setting": "pNP-C2; pH 6", "result": 27500, "unit": "U/mg"}, {"measurement": "Proxy for plastic degradation", "setting": "pNP-C2; pH 7", "result": 29500, "unit": "U/mg"}, {"measurement": "Proxy for plastic degradation", "setting": "pNP-C2; pH 7.5, 0 h", "result": 17500, "unit": "U/mg"}, {"measurement": "Proxy for plastic degradation", "setting": "pNP-C2; pH 7.5, 20 °C", "result": 0, "unit": "U/mg"}, {"measurement": "Proxy for plastic degradation", "setting": "pNP-C2; pH 7.5, 30 °C", "result": 22500, "unit": "U/mg"}, {"measurement": "Proxy for plastic degradation", "setting": "pNP-C2; pH 7.5, 40 °C", "result": 32500, "unit": "U/mg"}, {"measurement": "Proxy for plastic degradation", "setting": "pNP-C2; pH 7.5, 50 °C", "result": 20000, "unit": "U/mg"}, {"measurement": "Proxy for plastic degradation", "setting": "pNP-C2; pH 7.5, 60 °C", "result": 300, "unit": "U/mg"}, {"measurement": "Proxy for plastic degradation", "setting": "pNP-C2; pH 7.5, 70 °C", "result": 0, "unit": "U/mg"}, {"measurement": "Proxy for plastic degradation", "setting": "pNP-C2; pH 7.5, 80 °C", "result": 0, "unit": "U/mg"}, {"measurement": "Proxy for plastic degradation", "setting": "pNP-C2; pH 7.5, 1 h", "result": 19400, "unit": "U/mg"}, {"measurement": "Proxy for plastic degradation", "setting": "pNP-C2; pH 7.5, 2 h", "result": 22500, "unit": "U/mg"}, {"measurement": "Proxy for plastic degradation", "setting": "pNP-C2; pH 7.5, 3 h", "result": 35000, "unit": "U/mg"}, {"measurement": "Proxy for plastic degradation", "setting": "pNP-C2; pH 7.5, 4 h", "result": 25000, "unit": "U/mg"}, {"measurement": "Proxy for plastic degradation", "setting": "pNP-C2; pH 7.5, 5 h", "result": 18500, "unit": "U/mg"}, {"measurement": "Proxy for plastic degradation", "setting": "pNP-C2; pH 8", "result": 32200, "unit": "U/mg"}, {"measurement": "Proxy for plastic degradation", "setting": "pNP-C2; pH 9", "result": 10000, "unit": "U/mg"}, {"measurement": "Proxy for plastic degradation", "setting": "PET; PCL", "result": 10.9, "unit": "mL"}]}]}
